Source: PMC2989882
Like-named read-outs stand apart in the source and are kept apart here.

Tests used:
[1] = molecular target: T1, 3Dpol WT (RNA-dependent RNA polymerase) (poliovirus, UniProt P03300 1749-2209); experiment: NMR
[2] = molecular target: T1, 3Dpol WT (RNA-dependent RNA polymerase); experiment: NMR; remark: listed apart in the source

T1 sequence (P03300 1749-2209): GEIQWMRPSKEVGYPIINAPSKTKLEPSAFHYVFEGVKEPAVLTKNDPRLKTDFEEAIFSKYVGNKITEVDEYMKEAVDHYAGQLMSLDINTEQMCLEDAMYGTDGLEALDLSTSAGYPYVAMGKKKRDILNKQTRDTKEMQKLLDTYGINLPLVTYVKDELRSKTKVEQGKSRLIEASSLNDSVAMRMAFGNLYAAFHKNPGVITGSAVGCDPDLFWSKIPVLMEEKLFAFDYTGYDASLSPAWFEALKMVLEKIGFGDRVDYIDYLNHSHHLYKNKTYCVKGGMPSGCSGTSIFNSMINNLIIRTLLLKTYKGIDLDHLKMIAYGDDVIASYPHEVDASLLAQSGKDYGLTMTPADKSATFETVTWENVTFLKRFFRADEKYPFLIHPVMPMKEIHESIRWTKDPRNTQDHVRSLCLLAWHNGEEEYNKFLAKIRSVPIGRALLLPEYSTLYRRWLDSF

B1: sym/sub RNA (dsRNA)
RNA 1: GCAUGGGCCC
RNA 2: GCAUGGGCCC
binding result [1]: binds

B2: 3'-blocked sym/sub RNA (after 3'-dAMP incorporation) (dsRNA)
RNA 1: GCAUGGGCCCA
RNA 2: GCAUGGGCCCA
modifications: 3'-terminal 3'-deoxyadenosine (A11)
binding result [2]: binds
